The record followed here is patent US7094599.

The test addresses MHC class II antigen on the Raji B cell line. Briefly: cell-based or functional assay.

CD4:ζ (receptor) registered a percent cytolysis of Raji (MHC class II+) cells by CTL expressing CD4:ζ of 5%.
